Common to all, as to experiment: flow cytometry, transfected 293T cells, 2 mM CaCl2
Background: Flow cytometry measures light scatter and fluorescence of single cells or particles in a stream.

The target in assay [1] is T1, muCDH19(44-323)::raCDH19(324-327)::muCDH19(328-770) with leader and FLAG (construct X) (rat/mouse chimera).
T1 construct: leader (1-43 of the entry) left out
T1 chain: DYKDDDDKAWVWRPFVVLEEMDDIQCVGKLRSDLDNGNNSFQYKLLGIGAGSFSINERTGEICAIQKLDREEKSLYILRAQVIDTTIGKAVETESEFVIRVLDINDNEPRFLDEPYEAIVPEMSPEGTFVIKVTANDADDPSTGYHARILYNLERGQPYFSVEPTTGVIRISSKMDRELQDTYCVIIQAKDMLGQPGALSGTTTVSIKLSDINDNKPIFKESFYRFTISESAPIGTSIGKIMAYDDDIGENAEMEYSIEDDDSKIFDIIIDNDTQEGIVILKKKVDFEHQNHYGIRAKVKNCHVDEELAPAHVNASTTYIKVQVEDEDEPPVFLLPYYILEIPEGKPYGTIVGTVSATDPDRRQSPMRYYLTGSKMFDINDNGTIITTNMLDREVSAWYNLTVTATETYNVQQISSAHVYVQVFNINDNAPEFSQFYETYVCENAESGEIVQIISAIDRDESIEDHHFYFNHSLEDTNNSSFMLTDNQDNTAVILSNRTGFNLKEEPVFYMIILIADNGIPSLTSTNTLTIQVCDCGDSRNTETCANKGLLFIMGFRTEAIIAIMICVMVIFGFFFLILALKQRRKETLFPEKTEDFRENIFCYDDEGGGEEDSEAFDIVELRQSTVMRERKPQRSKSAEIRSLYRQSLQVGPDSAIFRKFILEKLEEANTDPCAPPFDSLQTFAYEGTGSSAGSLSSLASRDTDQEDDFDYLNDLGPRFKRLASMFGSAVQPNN

For assay [2], the target named is T2, caCDH19(1-43)::FLAG::caCDH19(44-87)::rhCDH19(89-114)::caCDH19(115-770) (construct T, rh EC1b) (rhesus macaque/dog chimera).
T2 construct: leader left out
T2 chain: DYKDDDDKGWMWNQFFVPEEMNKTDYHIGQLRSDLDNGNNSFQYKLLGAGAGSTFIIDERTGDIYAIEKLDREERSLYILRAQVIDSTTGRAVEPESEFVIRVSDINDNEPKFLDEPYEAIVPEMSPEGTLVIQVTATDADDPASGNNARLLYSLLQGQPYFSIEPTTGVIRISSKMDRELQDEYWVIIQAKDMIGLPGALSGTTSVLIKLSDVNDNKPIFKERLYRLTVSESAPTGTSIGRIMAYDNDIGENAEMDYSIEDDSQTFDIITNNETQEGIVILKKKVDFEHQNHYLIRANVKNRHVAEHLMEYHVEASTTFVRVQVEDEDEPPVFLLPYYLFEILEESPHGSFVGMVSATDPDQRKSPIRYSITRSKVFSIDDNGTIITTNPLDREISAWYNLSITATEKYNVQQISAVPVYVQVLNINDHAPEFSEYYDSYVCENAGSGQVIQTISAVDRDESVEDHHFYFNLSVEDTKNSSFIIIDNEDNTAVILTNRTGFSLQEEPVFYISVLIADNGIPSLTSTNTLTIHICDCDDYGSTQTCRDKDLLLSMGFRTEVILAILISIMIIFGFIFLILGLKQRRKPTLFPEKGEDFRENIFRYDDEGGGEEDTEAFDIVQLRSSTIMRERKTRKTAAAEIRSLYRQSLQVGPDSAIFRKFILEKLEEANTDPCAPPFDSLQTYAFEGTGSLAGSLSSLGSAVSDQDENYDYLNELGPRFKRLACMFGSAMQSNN

The target in assay [3] is T3, rhCDH19(1-43)::FLAG::rhCDH19(44-65)::caCDH19(65-770) (construct S, rh EC1a) (rhesus macaque/dog chimera).
T3 construct: leader (1-43 of the entry) left out

Assay [4] addresses T4, caCDH19(1-42)::FLAG::caCDH19(43-770) (construct Q, Ca EC1-5) (dog).
T4 construct: also called caCDH19(44-770); dog Cadherin19
T4 chain: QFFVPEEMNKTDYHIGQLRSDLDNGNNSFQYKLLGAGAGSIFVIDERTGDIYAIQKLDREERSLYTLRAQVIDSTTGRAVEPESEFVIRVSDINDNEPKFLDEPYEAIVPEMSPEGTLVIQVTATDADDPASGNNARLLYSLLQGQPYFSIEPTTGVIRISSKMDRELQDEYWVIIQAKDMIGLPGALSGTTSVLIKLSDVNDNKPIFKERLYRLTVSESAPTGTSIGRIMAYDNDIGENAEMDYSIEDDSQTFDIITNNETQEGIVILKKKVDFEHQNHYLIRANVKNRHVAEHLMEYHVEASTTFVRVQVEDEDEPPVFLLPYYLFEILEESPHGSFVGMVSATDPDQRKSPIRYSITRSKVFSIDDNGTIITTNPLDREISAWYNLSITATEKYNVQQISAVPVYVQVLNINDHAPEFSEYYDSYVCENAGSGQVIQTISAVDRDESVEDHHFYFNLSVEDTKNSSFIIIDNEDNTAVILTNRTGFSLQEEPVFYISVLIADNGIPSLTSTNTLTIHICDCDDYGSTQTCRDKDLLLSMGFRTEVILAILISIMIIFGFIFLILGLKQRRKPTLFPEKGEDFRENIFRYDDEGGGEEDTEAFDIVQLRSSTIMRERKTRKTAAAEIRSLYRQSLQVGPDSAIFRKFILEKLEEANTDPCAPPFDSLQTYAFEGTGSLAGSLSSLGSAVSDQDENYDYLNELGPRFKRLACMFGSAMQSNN

The target of assay [5] is T5, rhCDH19(1-43)::FLAG::rhCDH19(44-141)::caCDH19(141-770) (construct R, rh EC1) (rhesus macaque/dog chimera).
T5 construct: leader (1-43 of the entry) left out

B1: anti-CDH19 antibody 2G6 (Ab ID 13588) (antibody, human IgG1, lambda, V domains shown)
VH: QVQLVESGGGVVQPGRSLRLSCAASGFTFSSYGMHWVRQAPGKGLEWVAFIWYDGSNKYYADSVKDRFTISRDNSKNTLYLQMKSLRAEDTAVYYCARRAGIIGTIGYYYGMDVWGQGTTVTVSS
VL: SYELTQPPSVSVSPGQTASITCSGDRLGEKYTCWYQQRPGQSPLLVIYQDTKRPSGIPERFSGSNSGNTATLTISGTQAMDEADYYCQAWDSSTVVFGGGTKLTVLG
notes: Bin 4
Turning to B1, the binding result in assay [1] was “binds”.

B2: hu anti-<huCDH19> 4B10 (Ab ID 13590) (antibody, V domains shown)
VH: QVQLVESGGGVVQPGRSLRLSCAASGFTFSSYDMHWVRQAPGKGLEWVAVISYDGTNEYYADSVKGRFTISRDTSKNTLYLQMNSLRAEDTAVYYCARERYFDWSFDYWGQGTLVSVSS
VL: EIVLTQSPGTLSLSPGERATLSCRASQSVSNTYLAWYHQRPGQAPRLLIYGASSRATGIPDRFSGSGSGTDFALTISSLEPEDFAVYYCQQYSNSWTFGQGTKVEIKR
notes: huIgG1z / huKLC; Bin 4
Turning to B2, the binding result in assay [1] is given as “binds”.

B3: hu anti-<huCDH19> 26D1.1 (Ab ID 13882) (antibody, human IgG1, lambda, V domains shown)
VH: QVQLVQSGAEVKKPGASVKVSCKASRYTFTSYYMSWVRQAPGQGLEWMGIIHPSGGDTTYAQKFQGRVTMTGDTSTSTVYMELSSLRSEDTAVYYCARGGIKLWLHFDYWGQGTLVTVSS
VL: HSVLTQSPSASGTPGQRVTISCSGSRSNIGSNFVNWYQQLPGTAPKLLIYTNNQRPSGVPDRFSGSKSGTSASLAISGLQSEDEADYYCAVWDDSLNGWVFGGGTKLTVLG
notes: huIgG1z / huLLC-C2; Bin 2
B3: the binding result is recorded as “binds” in assay [2], “binds” in assay [3], “no binding (tested: 5 ug/ml)” in assay [4] and “binds” in assay [5].

B4: hu anti-<huCDH19> 4A9 (Ab ID 13589) (antibody, human IgG1, lambda, V domains shown)
VH: QVQLQESGPGLVKPSETLSLTCTVSGGSISGYYWSWIRQPPGKGLEWFAYFSYSGSTNYNPSLKSRVTLSVDTSKNQFSLKLSSVTAADTAVYYCARNWAFHFDFWGQGTLVTVSS
VL: QSVLTQPPSVSGAPGQRVTISCTGSSSNIGTGYAVHWYQQFPGTAPKLLIYGNNNRPSGVPDRFSGSKSGTSASLAITGLQAEDEADYYCQSYDSRLSGWVFGGGTKLTVLG
notes: huIgG1z / huLLC-C1; Bin 1
Regarding B4, the binding result in assay [2] is “no binding (tested: 5 ug/ml)”; in assay [3], “no binding (tested: 5 ug/ml)”; in assay [4] it was “no binding (tested: 5 ug/ml)”; in assay [5] it was “binds”.
